In patent US20140141994A1:

B1: SynBP01 (designed binder)
chain: AAIEVKDVTDTTALITWSPPSVLVGYTIELTYGIKDVPGDRTTIDLTEDENQYSIGNLKPDTEYEVSLISVTEFGRRRSKETFTTGGGTLEHHHHHH
B2: SynBP01-Fc (Fc fusion, not shown: a dimerising Fc or GST)
chain: IEVKDVTDTTALITWSPPSVLVGYTIELTYGIKDVPGDRTTIDLTEDENQYSIGNLKPDTEYEVSLISVTEFGRRRSKETFTT

Key:
SYNAGIS® [1] = test: SPR BIAcore 3000, SYNAGIS immobilized via primary amino groups, equilibrium binding of soluble SynBP01
SYNAGIS® [2] = test: SPR BIAcore 3000, both injected at 1 µM over immobilized SYNAGIS

Chain of SYNAGIS® (VH, as listed by the source, chain 1 of 2): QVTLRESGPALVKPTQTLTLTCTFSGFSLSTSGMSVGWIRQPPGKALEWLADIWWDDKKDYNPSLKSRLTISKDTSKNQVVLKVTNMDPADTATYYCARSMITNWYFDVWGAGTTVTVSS
Chain of SYNAGIS® (VL, as listed by the source, chain 2 of 2): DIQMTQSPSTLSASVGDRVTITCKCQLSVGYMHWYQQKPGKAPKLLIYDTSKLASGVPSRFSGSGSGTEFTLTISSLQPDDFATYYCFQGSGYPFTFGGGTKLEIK

Row | Binder | Kd (SYNAGIS® [1]) | fold increase in total response units compared to SynBP01 (SYNAGIS® [2])
1 | B1 | 16 µM | 
2 | B2 |  | 6 fold
